Experimental findings from the DeepSol protein solubility set are described below.

The nature of this data set: soluble on expression in E. coli; label from the status in PepcDB or PDB records.
Turning to “MPKRNDIKTILVIGSGPIIIGQAAEFDYAGTQACLALKEEGYRVILVNSNPATIMTDKEIADKVYIEPLTHDFIARIIRKEQPDALLPTLGGQTGLNMAIQLHESGVLQDNNVQLLGTELTSIQQAEDREMFRTLMNDLNVPVPESDIVNTVEQAFKFKEQVGYPLIVRPAFTMGGTGGGICHNDEELHEIVSNGLHYSPATQCLLEKSIAGFKEIEYEVMRDKNDNAIVVCNMENIDPVGIHTGDSIVVAPSQTLSDVEYQMLRDVSLKVIRALGIEGGCNVQLALDPHSFDYYIIEVNPRVSRSSALASKATGYPIAKLAAKIAVGLTLDEMLNPITGTSYAAFEPTLDYVISKIPRFPFDKFEKGERELGTQMKATGEVMAIGRTYEESLLKAIRSLEYGVHHLGLPNGESFDLDYIKERISHQDDERLFFIGEAIRRGTTLEEIHNMTQIDYFFLHKFQNIIDIEHQLKEHQGDLEYLKYAKDYGFSDKTIAHRFNMTEEEVYQLRMENDIKPVYKMVDTCAAEFESSTPYYYGTYETENESIVTDKEKILVLGSGPIRIGQGVEFDYATVHAVWAIQKAGYEAIIVNNNPETVSTDFSISDKLYFEPLTEEDVMNIINLEKPKGVVVQFGGQTAINLADKLAKHGVKILGTSLENLNRAEDRKEFEALLRKINVPQPQGKTATSPEEALANAAEIGYPVVVRPSYVLGGRAMEIVDNDKELENYMTQAVKASPEHPVLVDRYLTGKEIEVDAICDGETVIIPGIMEHIERAGVHSGDSIAVYPPQTLTEDELATLEDYTIKLAKGLNIIGLINIQFVIAHDGVYVLEVNPRSSRTVPFLSKITDIPMAQLAMRAIIGEKLTDMGYQEGVQPYAEGVFVKAPVFSFNKLKNVDITLGPEMKSTGEVMGKDTTLEKALFKGLTGSGVEVKDHGTVLMTVSDKDKEEVVKLAQRLNEVGYKILATSGTANKLAEYDIPAEVVGKIGGENDLLTRIQNGDVQIVINTMTKGKEVERDGFQIRRTTVENGIPCLTSLDTANALTNVIESMTFTMRQM”, the “soluble on expression in E. coli” value is “not soluble”.

For “MPKTQSAAGYKAGVKDYKLTYYTPDYTPKDTDLLAAFRFSPQPGVPADEAGAAIAAESSTGTWTTVWTDLLTDMDRYKGKCYHIEPVQGEENSYFAFIAYPLDLFEEGSVTNILTSIVGNVFGFKAIRSLRLEDIRFPVALVKTFQGPPHGIQVERDLLNKYGRPMLGCTIKPKLGLSAKNYGRAVYECLRGGLDFTKDDENINSQPFQRWRDRFLFVADAIHKSQAETGEIKGHYLNVTAPTCEEMMKRAEFAKELGMPIIMHDFLTAGFTANTTLAKWCRDNGVLLHIHRAMHAVIDRQRNHGIHFRVLAKCLRLSGGDHLHSGTVVGKLEGDKASTLGFVDLMREDHIEADRSRGVFFTQDWASMPGVLPVASGGIHVWHMPALVEIFGDDSVLQFGGGTLGHPWGNAPGATANRVALEACVQARNEGRDLYREGGDILREAGKWSPELAAALDLWKEIKFEFETMDKL”, the “soluble on expression in E. coli” value is given as “soluble”.

In the case of “MPKVDVYDINGKVVGEINLRDDIFGIEVNKHAIHQVIVNQLANRRQGTQSTKTKSEVRGGGRKPWRQKGTGRARHGSIRSAQWVKGGIALGPKPRSYKYAVPKKLRRLALKSALSSKVNENELLVLDSLNFDEIKTKQMANVLKNLKVNDTTAVLVLADKNRNVELSARNIPGLKTLFVNTMNVYDIIRHDKFIITKDAVAKVEEVYA”, the “soluble on expression in E. coli” value is listed as “not soluble”.

Take “MPKVISQKEFNILSRTKERVNFQIVYTKQRNGLHKAAKEYFFKDKDFTIIEDTPDTPDQPDGPCITKGPKEPGGPEEPNGPDKPEDPKDPDTPDVSEGPKEQGGQKDPGGPDDPSEGKQKVSKPDKYVTHRELDEKLKDFATKADFKRVEDKVDVLFELQKTQGEQIKVQGEQIKAQGKQIEQLTETVKVQGEQIRAQGEQIKAQSEEIKEIKVEQKAQGEQIKELQVEQKAQGKTLQLILKTLEKMNERLEKLESKLEHHHHHH”: the “soluble on expression in E. coli” value is recorded as “not soluble”.

As for “MPLPTELARHLTEEKIAFVQRSGLRAEVLEPGYVRLRMPGAGNENHIGSMYAGALFTLAELPGGALFLTSFDSARFYPIVKEMTLRFRRPAKGDIRVEARLDAERIRQLETEAGERGKAEYSLELQLTDEQGEVVAESAALYQLRSHARP”, the “soluble on expression in E. coli” value is recorded as “soluble”.

As to “MPLSPYLSFAGNCADAIAYYQQTLGAELLYKLSFGEMPPSAADNEEGCPSGMRFPDTAIAHANMRIAGSDIMMSDASASGRAHYSGFTLVLDTQDVAEGKRWFDNLAAQGQIEMDWQETFWAQGFGKVSDRFGVPWMINVVKHQPAT”, the “soluble on expression in E. coli” value was “not soluble”.

For the sequence “MPLTLNQLAELSGRASEHVLAEEVEETGTPAEEILARLRERLAVMRDSVRRGLASDAPSVAGLVGKNAKTLWEAPDPLQDPLLKRVQAYAMAVNEENARMGRIVAAPTAGSAGTLPGALLGVADHLGIPDEELLMPLVLAGGVAKMIGRVIHIAGASGGCQAEIGSSAAMAAAAVTELLGGTPEACAHAAALALQNTLGLVCDPVGGFVEVPCVMRNGFYAVHAVSAASMALAGIRSVIPPDEVVLAMAGIGRLLPLELKETGLGGLADTPTGRRLAEEALKKT”, the “soluble on expression in E. coli” value is “soluble”.

For “MPLTLYQRDDCHLCDQAVEVVAQARAGDFDSVFIDDDAALEAVYGARVPVLRDARGRELEWPFDRVRLRAWLDDDAERLEHHHHHH”, the “soluble on expression in E. coli” value is recorded as “not soluble”.

As for “MPLTPADVHNVAFNKPPIGKRGYNEDEVDQFLDLVEDALVQFQEENEDLKQQVEELEAQVAGGTSSAASSSTAGAATAAASKSVDEAALRKEIEEKLRSEYASKLDDASKAAQKAQNDAKSAQDQLQRAQADAKAARDEAEKAKAEAKSAASSSTTKAAAVGAVGAGTGAAVATGAANVDTHMQAAKVLGLAQEMADRLTSEARSESKSMLDEAREAAEKQIEEANSTSNRTLEDARANAEKQIAEAQNRADTLVNEADAKAKNLVSEAEKKSAATLAASTSRAEAQIRQAEDKANALQADAERKHTETMAAVKEQQNALETRIAELQTFEREYRTRLKSLLEGQLEELNARGSSAPTNNKPSGE”, the “soluble on expression in E. coli” value is “not soluble”.

As to “MPLVSMKEMLNKALEGKYAVGQFNMNNLEWTQAILAAAEEEKSPVILGVSEGAARHMTGFKTVVAMVKALIEEMNITVPVAIHLDHGSSFEKCKEAIDAGFTSVMIDASHHPFEENVETTKKVVEYAHARNVSVEAELGTVGGQEDDVIAEGVIYADPAECKHLVEATGIDCLAPALGSVHGPYKGEPNLGFAEMEQVRDFTGVPLVLHGGTGIPTADIEKAISLGTSKINVNTENQIEFTKAVREVLNKDQEVYDPRKFIGPGRDAIKATVIGKIREFGSNGKA”, the “soluble on expression in E. coli” value is reported as “not soluble”.

As for “MPMFIVNTNVPRASVPDGFLSELTQQLAQATGKPPQYIAVHVVPDQLMAFGGSSEPCALCSLHSIGKIGGAQNRSYSKLLCGLLAERLRISPDRVYINYYDMNAANVGWNNSTFALEHHHHHH”, the “soluble on expression in E. coli” value is “soluble”.

With “MPMKDVLSRIGIGSATVDTVLPTDSVRAGESVRAEVHVEGGSTDQNIDSVYFALETEYKSDEGYKDAIIDQWQLTEPFTIEAGEKRRFETTIDIPRETPVTTRSTAVEIETGLDISMAVDPGDEDYIEVEPTHRTQAVFDALDSLGFSLHASACEAAAGSLFTTSANFAQEFEFRPQRGEFTGAVDEVEIVPVFDDDRLTVYLEVDRSAGLLSEVTDADERHTKLTIEAPDPDAIEPRLAEAIRELS”, the “soluble on expression in E. coli” value is listed as “not soluble”.

In the case of “MPMLTRILLLLCVALNAPLASAKETLHIYAASSMTNAVNALVADYSQQHDVKLVTVYGGSSSLARQIEAGAPADLFISANEEWANYLVEKGLVKPNKVVTLAANSLVLIRPTAQPVASFELQDAAAWQTALADSRLAVAQVDAVPAGMYAKQALQHAGVWPELESRLAQTNNVRLALALVERGESPLGIVYKTDALLSDKVTIVTAFSAQSHQPIRYPLAQLNDKAASAEWVAYLRSDAAQQILQRFGFESVSE”, the “soluble on expression in E. coli” value is “not soluble”.

As to “MPNDMTHIDKIQALAFSIGKKMQTELLEQMQATGLTPPQFYILKILDHYGASRATTLAKKMYVKPSAITVMIDRLIDQELVERYHDKDDRRVVIIELTKKGKARVEEAMTARNEHIAKYFSHLELQEREDLLRLFEKLETIICGTQEKKENN”, the “soluble on expression in E. coli” value is given as “not soluble”.

“MPPKQQGPSKKSEQKRKEKVIEDKTFGLKNKKGNKNQKFVAQVENQVRNNNTRMDLVRQQEAAKKKEKDELLDIANLLKPVEQKVAKDVDPKSLLCVFFKQGLCGKGAKCKFSHDLAVAQKTAKKNLYADSREVEKDEETNENWDSDKLNEVVNKKNKNKHMIDIVSSFMTDIFKFKKLNFKVCKYFLEAVENNKYGWFWECPNGGEKCQYRHCLPEGYVLKKERKAMEQQKEDEISIEELVEKERAALSSKNLTKLTLQTFIAWKKKKLRERKEKEEADLKEKKEKIKSGKHNGMSGRDLFLYDANLVNNDDDEAGDIEMEKEEVDENEKVFEIDANFFKFDGMDDELTDQMSKSSTAVESTAKGMAKMDINEDLFDIDEDVENLDSDED”: the “soluble on expression in E. coli” value is listed as “soluble”.

“MPPPLPYDAMRSVWTDTAAPAMATAPLAGHADCDVAIVGAGITGLSAALHLAERGLRACVLEARDPGWGASGRNGGQVIPGIKHDPDEILARHGRERGEPLLHMVGTAADTVFDLIDRYGLDLVQAQIRLAAGERLDRVVPADLQPSGHAIELRVYAEDPVRFIPSPGTLAVFELPQGPGVRTETGYHAGNAVSPHYDPMIAKIIVHGADRAQAIARAEQALADTEIAGVKTNLPFLARALAFEPWRQGRLHTGIVARTLAEPAPAALTALEHHHHHH”: the “soluble on expression in E. coli” value is reported as “not soluble”.

For “MPPRPRMLAAAITAALALGAQAVPAAAADGPAGDSTATTSRGVEIPAFYTPPSELPAADGTLIRHEPLPLALSLPGIDGPLPGRATRLMYKSTDANGEAVAVTGAYVEPAAKWRGDGPRPLVAVAPGTMGQGDQCAASMALEHPLQLNGQTVSVGYEDLSVYRLLLRGVAVVVTDYVGLGTTDRLHTYVNRVDGAHAVLDAVRAARSLDSASVTSDSRVGLFGYSQGGGATAAAAELQPSYAPDVQLAGTYAGAPPADLTEVTKAIDGSDLAGALGWSLNGFLQTEPALRPIADRYINEAGQEALKDLSTMCVGDALFGYGGDSSTDWTRTGQSISDVIRAEPALQSFLAEQRIGSTAPGSPVRVATGVSDDLVPHGQARRLAVDWCGKGGKVTYVPVLIPGVGSGLLNHFAPLLADQGNAIAWLTDRLSGEPAGSNCWSMPVQPLEHHHHHH”, the “soluble on expression in E. coli” value was “soluble”.

For the sequence “MPQTERQLRVWIEGATGRRIGDNFMDGLKDGVILCELINKLQPGSVQKVNDPVQNWHKLENIGNFLRAIKHYGVKPHDIFEANDLFENTNHTQVQSTLIALASQAKTK”, the “soluble on expression in E. coli” value was “soluble”.

Take “MPQVETTSVFRADLLKEMESSTGTAPASTGAENLPAGSALLVVKRGPNAGARFLLDQPTTTAGRHPESDIFLDDVTVSRRHAEFRINEGEFEVVDVGSLNGTYVNREPRNAQVMQTGDEIQIGKFRLVFLAGPAELEHHHHHH”: the “soluble on expression in E. coli” value was “soluble”.

With “MPRARCKRCLRPTGYCLCALIPQIESRTRVLILQHPDEVSHALNTARLAALGLVNAQLCVGEVFDDLHTLLNPPGYQARLLFPGDAAETLTAYAPDATPMLLVVPDGTWRKARKLLHLNPLLAALPRVTLGSVPASRYRLRKAPGPEALSTLEAIVHTLQTLEAPNAFEALLKPFDALIDGQIQAMGNDTYQRNHGNQRLEHHHHHH”, the “soluble on expression in E. coli” value is recorded as “not soluble”.

As for “MPRIAIPDDLTEILTVVEFPLPNAPEIKIEIERLLQATGNSLSGKVTDDLVRSCQGLSMERIRRVLAKAIATHGELQPEDVDLVLEEKRQTIRQTQILDFYPATEQISDIGGLDNLKDWLLRRGGSFSERARQYGLPHPRGLLLEHHHHHH”, the “soluble on expression in E. coli” value is recorded as “not soluble”.
